Tests used:
[1] = molecular target: porcine aminopeptidase N (pAPN) ectodomain, soluble (pig) (UniProt P15145); experiment: crystal structure; HA-tagged APN ectodomains; pAPNeh: 5% PEG-1000, 10% PEG-8000 (pH ~6); native pAPN: 20% PEG-3350, 100 mM sodium acetate pH 5.6; hAPN: 20% PEG-6000, 50 mM imidazole-HCl pH 8.0; dimer in the crystals
[2] = molecular target: seleno-Met, endoglycosidase H-treated porcine APN ectodomain (pig) (UniProt P15145); experiment: as above
[3] = molecular target: TGEV RBD-Fc fusion protein (bivalent RBD-Fc variant); experiment: flow cytometry on cells; conditions: 293T cell surface, normalized to cell surface expression, read off a plot
[4] = molecular target: the molecule itself; experiment: crystal structure; HA-tagged APN ectodomains; pAPNeh: 5% PEG-1000, 10% PEG-8000 (pH ~6); native pAPN: 20% PEG-3350, 100 mM sodium acetate pH 5.6; hAPN: 20% PEG-6000, 50 mM imidazole-HCl pH 8.0; dimer in the crystals
[5] = + DTT (5 mM; 30 min, 37 °C) before assay, parent: est. 110

Row | Molecule | percent of parent [3, 5] [%] | percent of parent ([3]; - DTT, parent: est. 100) [%] | other results
1 | porcine aminopeptidase N (pAPN) ectodomain, soluble (from UniProt P15145 36-963) (domain or fragment) | – | – | stoichiometry N [1]: 2
2 | seleno-Met, endoglycosidase H-treated porcine APN ectodomain (from UniProt P15145 36-963) (domain or fragment) | – | – | stoichiometry N [2]: 2
3 | wild type porcine APN on the surface of transiently transfected 293T cells (from UniProt P15145) S464C; S892C | 120 | 45 | –
4 | wild type porcine APN on the surface of transiently transfected 293T cells (from UniProt P15145) S464C; S892C; S929C | 76 | 37 | –
5 | wild type porcine APN on the surface of transiently transfected 293T cells (from UniProt P15145) S464C; S929C | 110 | 19 | –
6 | human aminopeptidase N (hAPN) ectodomain, soluble (domain or fragment, UniProt P15144 36-967, looked up) EKNKNANSSPVASTTPSASATTNPASATTLDQSKAWNRYRLPNTLKPDSYRVTLRPYLTPNDRGLYVFKGSSTVRFTCKEATDVIIIHSKKLNYTLSQGHRVVLRGVGGSQPPDIDKTELVEPTEYLVVHLKGSLVKDSQYEMDSEFEGELADDLAGFYRSEYMEGNVRKVVATTQMQAADARKSFPCFDEPAMKAEFNITLIHPKDLTALSNMLPKGPSTPLPEDPNWNVTEFHTTPKMSTYLLAFIVSEFDYVEKQASNGVLIRIWARPSAIAAGHGDYALNVTGPILNFFAGHYDTPYPLPKSDQIGLPDFNAGAMENWGLVTYRENSLLFDPLSSSSSNKERVVTVIAHELAHQWFGNLVTIEWWNDLWLNEGFASYVEYLGADYAEPTWNLKDLMVLNDVYRVMAVDALASSHPLSTPASEINTPAQISELFDAISYSKGASVLRMLSSFLSEDVFKQGLASYLHTFAYQNTIYLNLWDHLQEAVNNRSIQLPTTVRDIMNRWTLQMGFPVITVDTSTGTLSQEHFLLDPDSNVTRPSEFNYVWIVPITSIRDGRQQQDYWLIDVRAQNDLFSTSGNEWVLLNLNVTGYYRVNYDEENWRKIQTQLQRDHSAIPVINRAQIINDAFNLASAHKVPVTLALNNTLFLIEERQYMPWEAALSSLSYFKLMFDRSEVYGPMKNYLKKQVTPLFIHFRNNTNNWREIPENLMDQYSEVNAISTACSNGVPECEEMVSGLFKQWMENPNNNPIHPNLRSTVYCNAIAQGGEEEWDFAWEQFRNATLVNEADKLRAALACSKELWILNRYLSYTLNPDLIRKQDATSTIISITNNVIGQGLVWDFVQSNWKKLFNDYGGGSFSFSNLIQAVTRRFSTEYELQQLEQFKKDNEETGFGSGTRALEQALEKTKANIKWVKENKEVVLQWFTENSK | – | – | stoichiometry N [4]: 2

From publication PMC5385526 (Scientific Reports, 2017)
